In PMC11228049:

Columns and labels:
untagged βarr2 [1] = target: untagged βarr2 (UniProt P29067); assay: ITC; βarr1 (15 μM) or βarr2 (20 μM) in the sample cell, 400 μM Gβγ C68S in the syringe; 25 °C; 20 mM HEPES, 150 mM NaCl, 0.02% DDM, pH 7.4; an additional early binding site was excluded, the rest fitted to a one-site model
βarr2 in excess V2Rpp = βarr2 in excess V2Rpp (UniProt P29067); assay: ITC; βarr form in the sample cell, WT Gβγ in the syringe; 25 °C; 20 mM HEPES, 150 mM NaCl, 0.02% DDM, pH 7.4; one-site model
untagged βarr2 [2] = target: untagged βarr2 (UniProt P29067); assay: as above

UniProt P29067, sequence (P29067 whole entry): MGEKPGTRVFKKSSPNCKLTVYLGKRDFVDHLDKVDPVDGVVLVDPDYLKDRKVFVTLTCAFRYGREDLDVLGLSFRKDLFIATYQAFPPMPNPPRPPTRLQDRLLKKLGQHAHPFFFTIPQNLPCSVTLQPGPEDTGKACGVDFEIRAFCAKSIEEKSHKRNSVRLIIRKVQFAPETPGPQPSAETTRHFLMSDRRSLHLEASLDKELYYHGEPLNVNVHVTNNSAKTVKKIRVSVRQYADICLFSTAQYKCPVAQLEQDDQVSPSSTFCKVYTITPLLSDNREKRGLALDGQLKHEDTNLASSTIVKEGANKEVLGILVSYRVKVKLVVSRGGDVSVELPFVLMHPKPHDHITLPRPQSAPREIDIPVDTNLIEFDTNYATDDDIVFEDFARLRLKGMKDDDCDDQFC

Row | Kd (untagged βarr2 [1]) [µM] | Kd (βarr2 in excess V2Rpp) [µM] | stoichiometry N (βarr2 in excess V2Rpp) [site] | Kd (untagged βarr2 [2]) [µM] | stoichiometry N (untagged βarr2 [2]) [site] | Substance
1 | 0.9 | – | – | – | – | Gβ1γ2 with a C68S mutation in Gγ2 (from UniProt P62873 1-340; P59768 1-71) (complex)
2 | – | 1.8 | 1 | 1.5 | 1 | recombinant purified WT Gβ1γ2 (from UniProt P62873 1-340; P59768 1-71) (complex)
